Experiments:
[1] = HPLC-assay for in-use stability after reconstitution with 4.2% sodium hydrogen carbonate solution (Example 3, peptides SEQ ID NO 11-23); format: physicochemical
Protocol: For clinical trials the above described formulation is dissolved in 700 μl sodium hydrogen carbonate (4.2%). To dissolve the lyophilisate, the vial and the diluent shall be shaken vigorously for 1 minute, check whether solution is clear, otherwise continue shaking for another minute until the solution is clear. Administration of 500 μL of the solution has to occur within 1 h after reconstitution. Dissolved lyophilisate may be stored aseptically at room temperature for up to 1 hour following reconstitution.
(§1) Identity, purity and peptide content are determined by analytical RP-HPLC chromatography. Detection wavelength was 220 nm.

[2] = HPLC-assay for stability of peptides in lyophilised formulation on storage for 3 months (Example 4); format: physicochemical; conditions: for stability of peptides in formulation, 1 M: 1 month; for stability of peptides in formulation, 2 M: 2 months; for stability of peptides in formulation, 3 M: 3 months
Protocol: as §1

AMTQLLAGV (listed as Homo sapiens) [TNC-001, Tenascin C peptide]
in-use stability, Peptide [%] ([1]; +Mannitol/Lutrol, 2h): 100.5% | in-use stability, Peptide [%] ([1]; +Mannitol/Lutrol, 4h): 100.6% | in-use stability, Peptide [%] ([1]; +Mannitol/Lutrol, 6h): 100.2% | in-use stability, Peptide [%] ([1]; +Mannitol/Lutrol, Initial): 100.0% | in-use stability, Peptide [%] ([1]; no excipients, 2h): 100.0% | in-use stability, Peptide [%] ([1]; no excipients, 4h): 100.4% | in-use stability, Peptide [%] ([1]; no excipients, 6h): 95.7% | in-use stability, Peptide [%] ([1]; no excipients, Initial): 100.0% | stability of peptides in formulation, 1 M ([2]; +5° C. +/- 3° C.): 99.02 % of Initial | stability of peptides in formulation, 2 M ([2]; +5° C. +/- 3° C.): 98.10 % of Initial | stability of peptides in formulation, 3 M ([2]; +5° C. +/- 3° C.): 98.72 % of Initial | stability of peptides in formulation, INITIAL ([2]; +5° C. +/- 3° C.): 100.0% | stability of peptides in formulation, 1 M ([2]; +25° C. +/- 2° C.): 97.86 % of Initial | stability of peptides in formulation, 2 M ([2]; +25° C. +/- 2° C.): 96.80 % of Initial | stability of peptides in formulation, 3 M ([2]; +25° C. +/- 2° C.): 97.21 % of Initial | stability of peptides in formulation, INITIAL ([2]; +25° C. +/- 2° C.): 100.0% | stability of peptides in formulation, 1 M ([2]; -20° C. +/- 5° C.): 99.01 % of Initial | stability of peptides in formulation, 2 M ([2]; -20° C. +/- 5° C.): 97.61 % of Initial | stability of peptides in formulation, 3 M ([2]; -20° C. +/- 5° C.): 98.57 % of Initial | stability of peptides in formulation, INITIAL ([2]; -20° C. +/- 5° C.): 100.0%

GLWHHQTEV (listed as Homo sapiens) [NRCAM-001, Neuronal cell adhesion molecule peptide]
in-use stability, Peptide [%] ([1]; +Mannitol/Lutrol, 2h): 99.9% | in-use stability, Peptide [%] ([1]; +Mannitol/Lutrol, 4h): 100.0% | in-use stability, Peptide [%] ([1]; +Mannitol/Lutrol, 6h): 99.5% | in-use stability, Peptide [%] ([1]; +Mannitol/Lutrol, Initial): 100.0% | in-use stability, Peptide [%] ([1]; no excipients, 2h): 99.8% | in-use stability, Peptide [%] ([1]; no excipients, 4h): 100.2% | in-use stability, Peptide [%] ([1]; no excipients, 6h): 95.6% | in-use stability, Peptide [%] ([1]; no excipients, Initial): 100.0% | stability of peptides in formulation, 1 M ([2]; +5° C. +/- 3° C.): 99.13 % of Initial | stability of peptides in formulation, 2 M ([2]; +5° C. +/- 3° C.): 98.17 % of Initial | stability of peptides in formulation, 3 M ([2]; +5° C. +/- 3° C.): 98.79 % of Initial | stability of peptides in formulation, INITIAL ([2]; +5° C. +/- 3° C.): 100.0% | stability of peptides in formulation, 1 M ([2]; +25° C. +/- 2° C.): 97.90 % of Initial | stability of peptides in formulation, 2 M ([2]; +25° C. +/- 2° C.): 96.73 % of Initial | stability of peptides in formulation, 3 M ([2]; +25° C. +/- 2° C.): 97.59 % of Initial | stability of peptides in formulation, INITIAL ([2]; +25° C. +/- 2° C.): 100.0% | stability of peptides in formulation, 1 M ([2]; -20° C. +/- 5° C.): 99.23 % of Initial | stability of peptides in formulation, 2 M ([2]; -20° C. +/- 5° C.): 97.86 % of Initial | stability of peptides in formulation, 3 M ([2]; -20° C. +/- 5° C.): 98.91 % of Initial | stability of peptides in formulation, INITIAL ([2]; -20° C. +/- 5° C.): 100.0%

KIQEILTQV (listed as Homo sapiens) [IGF2BP3-001]
in-use stability, Peptide [%] ([1]; +Mannitol/Lutrol, 2h): 100.4% | in-use stability, Peptide [%] ([1]; +Mannitol/Lutrol, 4h): 100.6% | in-use stability, Peptide [%] ([1]; +Mannitol/Lutrol, 6h): 100.7% | in-use stability, Peptide [%] ([1]; +Mannitol/Lutrol, Initial): 100.0% | in-use stability, Peptide [%] ([1]; no excipients, 2h): 100.0% | in-use stability, Peptide [%] ([1]; no excipients, 4h): 101.2% | in-use stability, Peptide [%] ([1]; no excipients, 6h): 96.0% | in-use stability, Peptide [%] ([1]; no excipients, Initial): 100.0% | stability of peptides in formulation, 1 M ([2]; +5° C. +/- 3° C.): 99.00 % of Initial | stability of peptides in formulation, 2 M ([2]; +5° C. +/- 3° C.): 97.92 % of Initial | stability of peptides in formulation, 3 M ([2]; +5° C. +/- 3° C.): 98.57 % of Initial | stability of peptides in formulation, INITIAL ([2]; +5° C. +/- 3° C.): 100.0% | stability of peptides in formulation, 1 M ([2]; +25° C. +/- 2° C.): 98.01 % of Initial | stability of peptides in formulation, 2 M ([2]; +25° C. +/- 2° C.): 96.77 % of Initial | stability of peptides in formulation, 3 M ([2]; +25° C. +/- 2° C.): 97.34 % of Initial | stability of peptides in formulation, INITIAL ([2]; +25° C. +/- 2° C.): 100.0% | stability of peptides in formulation, 1 M ([2]; -20° C. +/- 5° C.): 99.10 % of Initial | stability of peptides in formulation, 2 M ([2]; -20° C. +/- 5° C.): 97.54 % of Initial | stability of peptides in formulation, 3 M ([2]; -20° C. +/- 5° C.): 98.42 % of Initial | stability of peptides in formulation, INITIAL ([2]; -20° C. +/- 5° C.): 100.0%

KVFAGIPTV (listed as Homo sapiens) [PTP-005, Protein tyrosine phosphatase, receptor-type, Z polypeptide 1 peptide]
in-use stability, Peptide [%] ([1]; +Mannitol/Lutrol, 2h): 100.1% | in-use stability, Peptide [%] ([1]; +Mannitol/Lutrol, 4h): 100.3% | in-use stability, Peptide [%] ([1]; +Mannitol/Lutrol, 6h): 99.8% | in-use stability, Peptide [%] ([1]; +Mannitol/Lutrol, Initial): 100.0% | in-use stability, Peptide [%] ([1]; no excipients, 2h): 99.9% | in-use stability, Peptide [%] ([1]; no excipients, 4h): 100.4% | in-use stability, Peptide [%] ([1]; no excipients, 6h): 95.8% | in-use stability, Peptide [%] ([1]; no excipients, Initial): 100.0% | stability of peptides in formulation, 1 M ([2]; +5° C. +/- 3° C.): 98.93 % of Initial | stability of peptides in formulation, 2 M ([2]; +5° C. +/- 3° C.): 97.79 % of Initial | stability of peptides in formulation, 3 M ([2]; +5° C. +/- 3° C.): 98.67 % of Initial | stability of peptides in formulation, INITIAL ([2]; +5° C. +/- 3° C.): 100.0% | stability of peptides in formulation, 1 M ([2]; +25° C. +/- 2° C.): 98.16 % of Initial | stability of peptides in formulation, 2 M ([2]; +25° C. +/- 2° C.): 97.10 % of Initial | stability of peptides in formulation, 3 M ([2]; +25° C. +/- 2° C.): 98.30 % of Initial | stability of peptides in formulation, INITIAL ([2]; +25° C. +/- 2° C.): 100.0% | stability of peptides in formulation, 1 M ([2]; -20° C. +/- 5° C.): 98.99 % of Initial | stability of peptides in formulation, 2 M ([2]; -20° C. +/- 5° C.): 97.41 % of Initial | stability of peptides in formulation, 3 M ([2]; -20° C. +/- 5° C.): 98.34 % of Initial | stability of peptides in formulation, INITIAL ([2]; -20° C. +/- 5° C.): 100.0%

LTFGDVVAV (listed as Homo sapiens) [FABP7-001]
in-use stability, Peptide [%] ([1]; +Mannitol/Lutrol, 2h): 100.9% | in-use stability, Peptide [%] ([1]; +Mannitol/Lutrol, 4h): 100.7% | in-use stability, Peptide [%] ([1]; +Mannitol/Lutrol, 6h): 100.6% | in-use stability, Peptide [%] ([1]; +Mannitol/Lutrol, Initial): 100.0% | in-use stability, Peptide [%] ([1]; no excipients, 2h): 100.5% | in-use stability, Peptide [%] ([1]; no excipients, 4h): 100.9% | in-use stability, Peptide [%] ([1]; no excipients, 6h): 96.3% | in-use stability, Peptide [%] ([1]; no excipients, Initial): 100.0% | stability of peptides in formulation, 1 M ([2]; +5° C. +/- 3° C.): 99.08 % of Initial | stability of peptides in formulation, 2 M ([2]; +5° C. +/- 3° C.): 98.15 % of Initial | stability of peptides in formulation, 3 M ([2]; +5° C. +/- 3° C.): 98.66 % of Initial | stability of peptides in formulation, INITIAL ([2]; +5° C. +/- 3° C.): 100.0% | stability of peptides in formulation, 1 M ([2]; +25° C. +/- 2° C.): 98.43 % of Initial | stability of peptides in formulation, 2 M ([2]; +25° C. +/- 2° C.): 97.71 % of Initial | stability of peptides in formulation, 3 M ([2]; +25° C. +/- 2° C.): 98.67 % of Initial | stability of peptides in formulation, INITIAL ([2]; +25° C. +/- 2° C.): 100.0% | stability of peptides in formulation, 1 M ([2]; -20° C. +/- 5° C.): 99.09 % of Initial | stability of peptides in formulation, 2 M ([2]; -20° C. +/- 5° C.): 97.60 % of Initial | stability of peptides in formulation, 3 M ([2]; -20° C. +/- 5° C.): 98.39 % of Initial | stability of peptides in formulation, INITIAL ([2]; -20° C. +/- 5° C.): 100.0%
